How the values were obtained:
Experiment in all cases: ELISA on coated antigen, A405 nm
human PD-L2 = molecular target: T1, human PD-L2 (human, UniProt Q9BQ51 20-220, limits assumed)
T1 sequence (looked up): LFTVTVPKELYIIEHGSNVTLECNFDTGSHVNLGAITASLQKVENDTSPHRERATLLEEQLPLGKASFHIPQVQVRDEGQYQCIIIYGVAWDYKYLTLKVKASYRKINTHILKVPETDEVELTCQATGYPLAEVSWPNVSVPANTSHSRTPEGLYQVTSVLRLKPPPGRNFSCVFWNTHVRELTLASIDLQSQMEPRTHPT

PD-L1 (mouse) = molecular target: T2, PD-L1 (mouse) (mouse, UniProt Q9EP73 19-238, limits assumed)
T2 construct: also called mouse PD-L1; murine PD-L1

human B7H3 = molecular target: T3, human B7H3 (human, UniProt Q5ZPR3-2 29-245, limits assumed)
T3 sequence (looked up): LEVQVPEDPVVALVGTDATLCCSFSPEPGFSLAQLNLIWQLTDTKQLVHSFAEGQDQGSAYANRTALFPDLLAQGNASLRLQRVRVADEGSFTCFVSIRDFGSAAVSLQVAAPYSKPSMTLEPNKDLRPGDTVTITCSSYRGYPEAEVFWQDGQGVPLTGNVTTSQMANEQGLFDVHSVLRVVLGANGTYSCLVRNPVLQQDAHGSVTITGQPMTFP

B7H4 = molecular target: T4, B7H4 (human, UniProt Q7Z7D3 29-258, limits assumed)
T4 sequence (looked up): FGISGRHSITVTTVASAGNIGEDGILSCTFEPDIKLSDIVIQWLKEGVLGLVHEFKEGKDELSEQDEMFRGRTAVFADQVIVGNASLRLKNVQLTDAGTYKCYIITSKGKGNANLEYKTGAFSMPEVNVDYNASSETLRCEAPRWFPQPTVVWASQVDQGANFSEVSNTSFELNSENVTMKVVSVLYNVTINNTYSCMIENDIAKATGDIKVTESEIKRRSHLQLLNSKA

T2 sequence (Q9EP73 19-238 limits assumed): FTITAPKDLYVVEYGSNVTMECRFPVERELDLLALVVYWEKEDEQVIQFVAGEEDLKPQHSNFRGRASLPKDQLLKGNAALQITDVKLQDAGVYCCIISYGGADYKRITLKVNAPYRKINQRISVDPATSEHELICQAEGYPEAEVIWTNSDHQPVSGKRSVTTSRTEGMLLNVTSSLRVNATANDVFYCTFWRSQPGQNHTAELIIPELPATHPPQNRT

- binding result (human PD-L2): no binding
- binding result (PD-L1 (mouse)): no binding
- binding result (human B7H3): no binding
- binding result (B7H4): no binding
B1: bivalent anti-PD-L1 single-domain antibody before humanization (Fc fusion)
chain: QVQLQESGGGSVQAGGSLRLSCTASGYNLSPSCMGWFRQAPGKEREGVAFTDADGSTRYADSVKARFTISRDNAENTLYLQMNSLKPEDTAMYYCAADFFSYCSVVFRASARDKYRGQGTQVTVSS
notes: also called bivalent PD-L1 single-domain antibody before humanization; bivalent single-domain antibody before humanization; not shown: IgG1 Fc of vector pFUSE-IgG1
